Measurements taken from PMC8750077.

Legend:
[1] = molecular target: HPV18-E6 (4C-4S) version of E6 fused with His-tag (human papillomavirus type 18 (HPV18)) (UniProt P06463)
[2] = molecular target: HPV18-E6 (4C-4S) version of E6 fused with His-tag (human papillomavirus type 18 (HPV18)) (UniProt P06463); remark: listed apart in the source

UniProt P06463, sequence (P06463 whole entry, the tested form may be a part): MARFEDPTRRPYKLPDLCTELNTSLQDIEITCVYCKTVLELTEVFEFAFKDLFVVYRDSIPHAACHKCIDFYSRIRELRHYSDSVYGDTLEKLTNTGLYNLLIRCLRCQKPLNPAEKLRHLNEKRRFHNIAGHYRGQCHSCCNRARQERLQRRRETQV

Substance “untagged USP46 (from UniProt P62068 1-366) (enzyme)” has a deubiquitinase activity of recombinant USP46 (singly purified His-USP46, 70 nM) on the ubiquitin substrate after simple mixing with recombinant HPV-E6 (4 uM); USP46 alone 0.39 FU/min [1] of 0.58 FU/min and a deubiquitinase activity on Ub-AMC of the E6:USP46 complex purified on Ni-NTA and concentrated (USP46-UAF1 complex in the same assay: 0.83 FU/min) [2] of 0.78 FU/min.
